Results reported in patent publication US20170096486A1, “AGENTS INHIBITING GRANULIN FOR TREATMENT OF CANCER” (priority 2014, published 2017).

Tested on: MCF7 cells
Test: Proliferation of MCF7 cells after peptide treatment
Assay type: cell-based
Conditions: MCF7 cells (FIG. 5)

B1: HB-EGF: peptide mimetic HB-EGF (R&D Systems 259-HE-050) (protein, UniProt Q99075 63-148, looked up)
Heparin-binding EGF-like …: DLQEADLDLLRVTLSSKPQALATPNKEEHGKRKKKGKGLGKKRDPCLRKYKDFCIHGECKYVKELRAPSCICHPGYHGERCHGLSL
  proliferation after peptide treatment: does not affect proliferation
